From patent US5635601, “Beta-8 integrin subunit antibodies” (Genentech, Inc., dated 1997)

Tests used:
alpha-2 integrin subunit = alpha-2 integrin subunit (human, UniProt P17301); assay: co-immunoprecipitation from surface-labelled beta-8-transfected 293 cells with monoclonal antibody P1H5
Procedure: (§1) For the immunoprecipitation, four hundred microliters of the labelled cell extract was incubated with 1/100 volume of antibody (ascites, culture supernatant or antiserum) at 4° C. overnight, and immunoprecipitations were carried out using Protein G Sepharose™ 4FF (Pharmacia) after first preclearing with SEPHAROSE™ CL-4B (Pharmacia). Protein G SEPHAROSE™ beads were washed three times with 0.05% Tween 20, 20mM Tris pH 8, 120 mM NaCl, 2 mM CaCl_2. Proteins precipitated from the labelled cell extracts were solubilized by heating in sample buffer and analyzed by separation on a 7.5% SDS-polyacrylamide gel followed by autoradiography.
(§2) These cells endogenously express various alpha integrin subunits, including alpha-v. The beta-8 integrin transfected cell proteins were prepared for immunoprecipitation as described in Example 4.
(§3) Monoclonal antibodies against several different alpha integrin subunits were used in the immunoprecipitations in order to identify with which alpha subunit the beta-8 integrin formed a complex. […]

alpha-5 integrin subunit = alpha-5 integrin subunit (human, UniProt P08648); assay: co-immunoprecipitation from surface-labelled beta-8-transfected 293 cells with monoclonal antibody P1D6
Procedure: as §1, §2, §3

alpha-6 integrin subunit = biological target: T1, alpha-6 integrin subunit (human, UniProt P23229); assay: co-immunoprecipitation from surface-labelled beta-8-transfected 293 cells with monoclonal antibody GoH3
T1 sequence 1: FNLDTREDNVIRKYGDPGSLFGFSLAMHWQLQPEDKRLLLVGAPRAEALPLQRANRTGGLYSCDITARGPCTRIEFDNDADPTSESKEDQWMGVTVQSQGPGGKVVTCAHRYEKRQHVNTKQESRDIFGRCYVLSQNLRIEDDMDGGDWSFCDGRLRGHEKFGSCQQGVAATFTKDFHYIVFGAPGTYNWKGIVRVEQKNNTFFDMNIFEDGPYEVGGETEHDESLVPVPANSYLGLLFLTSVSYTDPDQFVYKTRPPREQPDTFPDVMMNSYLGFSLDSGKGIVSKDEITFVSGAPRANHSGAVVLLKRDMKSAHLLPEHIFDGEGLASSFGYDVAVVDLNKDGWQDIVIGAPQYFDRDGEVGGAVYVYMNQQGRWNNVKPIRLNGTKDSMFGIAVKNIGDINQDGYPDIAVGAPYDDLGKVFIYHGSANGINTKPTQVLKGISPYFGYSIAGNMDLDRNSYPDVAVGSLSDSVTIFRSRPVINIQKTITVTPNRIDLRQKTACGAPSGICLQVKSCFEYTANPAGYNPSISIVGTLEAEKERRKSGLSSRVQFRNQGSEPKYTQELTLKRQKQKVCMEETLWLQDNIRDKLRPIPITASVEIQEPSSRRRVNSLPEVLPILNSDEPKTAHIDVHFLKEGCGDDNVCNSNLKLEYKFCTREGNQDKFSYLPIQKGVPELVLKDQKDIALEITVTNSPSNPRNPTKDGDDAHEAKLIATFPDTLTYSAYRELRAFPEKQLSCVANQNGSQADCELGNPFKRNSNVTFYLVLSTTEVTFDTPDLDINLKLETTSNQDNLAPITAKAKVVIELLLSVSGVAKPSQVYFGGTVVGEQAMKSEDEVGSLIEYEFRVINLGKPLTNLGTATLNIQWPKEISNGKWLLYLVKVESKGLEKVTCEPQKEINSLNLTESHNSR
T1 sequence 2: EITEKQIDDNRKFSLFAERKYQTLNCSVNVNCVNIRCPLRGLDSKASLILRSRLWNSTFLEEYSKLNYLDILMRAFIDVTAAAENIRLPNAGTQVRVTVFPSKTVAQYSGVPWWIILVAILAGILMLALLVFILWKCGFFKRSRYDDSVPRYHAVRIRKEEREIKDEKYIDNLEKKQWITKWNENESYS
Procedure: as §1, §2, §3

alpha-3 integrin subunit = biological target: T2, alpha-3 integrin subunit (human, UniProt P26006); assay: co-immunoprecipitation from surface-labelled beta-8-transfected 293 cells with monoclonal antibody P1B5
T2 sequence 1: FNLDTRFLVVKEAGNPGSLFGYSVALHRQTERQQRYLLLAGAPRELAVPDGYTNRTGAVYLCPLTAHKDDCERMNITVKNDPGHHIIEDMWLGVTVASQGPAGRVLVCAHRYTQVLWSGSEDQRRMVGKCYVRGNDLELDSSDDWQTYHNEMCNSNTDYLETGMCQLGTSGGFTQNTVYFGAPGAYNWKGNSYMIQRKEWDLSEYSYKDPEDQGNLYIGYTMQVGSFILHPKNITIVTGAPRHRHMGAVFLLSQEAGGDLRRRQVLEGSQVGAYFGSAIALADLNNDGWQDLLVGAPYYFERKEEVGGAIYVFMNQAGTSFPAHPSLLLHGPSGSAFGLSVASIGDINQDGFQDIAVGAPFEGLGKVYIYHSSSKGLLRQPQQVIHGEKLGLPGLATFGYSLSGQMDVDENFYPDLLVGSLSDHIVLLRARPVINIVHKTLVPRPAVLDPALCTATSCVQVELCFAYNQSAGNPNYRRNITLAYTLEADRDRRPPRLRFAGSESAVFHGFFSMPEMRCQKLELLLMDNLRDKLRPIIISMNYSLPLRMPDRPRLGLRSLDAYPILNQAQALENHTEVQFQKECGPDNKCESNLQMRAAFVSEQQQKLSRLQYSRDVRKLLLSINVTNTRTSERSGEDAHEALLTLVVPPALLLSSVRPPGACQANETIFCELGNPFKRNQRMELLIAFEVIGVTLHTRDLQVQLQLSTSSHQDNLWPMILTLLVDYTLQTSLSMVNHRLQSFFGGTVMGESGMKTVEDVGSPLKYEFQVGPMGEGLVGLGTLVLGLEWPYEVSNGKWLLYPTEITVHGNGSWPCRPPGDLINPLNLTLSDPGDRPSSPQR
T2 sequence 2: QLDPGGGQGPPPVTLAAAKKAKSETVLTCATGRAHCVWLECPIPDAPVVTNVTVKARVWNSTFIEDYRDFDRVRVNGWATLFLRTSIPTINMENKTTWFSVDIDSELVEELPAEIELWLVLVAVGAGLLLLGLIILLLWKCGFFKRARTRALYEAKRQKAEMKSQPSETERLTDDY
Procedure: as §1, §2, §3

alpha-1 integrin subunit = alpha-1 integrin subunit (human, UniProt P56199); assay: co-immunoprecipitation from surface-labelled beta-8-transfected 293 cells with monoclonal antibody TS2/7
Procedure: as §1, §2, §3

Measured: binding result

B1: human beta-8 integrin subunit (receptor)
chain: EDNRCASSNAASCARCLALGPECGWCVQEDFISGGSRSERCDIVSNLISKGCSVDSIEYPSVHVIIPTENEINTQVTPGEVSIQLRPGAEANFMLKVHPLKKYPVDLYYLVDVSASMHNNIEKLNSVGNDLSRKMAFFSRDFRLGFGSYVDKTVSPYISIHPERIHNQCSDYNLDCMPPHGYIHVLSLTENITEFEKAVHRQKISGNIDTPEGGFDAMLQAAVCESHIGWRKEAKRLLLVMTDQTSHLALDSKLAGIVVPNDGNCHLKNNVYVKSTTMEHPSLGQLSEKLIDNNINVIFAVQGKQFHWYKDLLPLLPGTIAGEIESKAANLNNLVVEAYQKLISEVKVQVENQVQGIYFNITAICPDGSRKPGMEGCRNVTSNDEVLFNVTVTMKKCDVTGGKNYAIIKPIGFNETAKIHIHRNCSCQCEDNRGPKGKCVDETFLDSKCFQCDENKCHFDEDQFSSESCKSHKDQPVCSGRGVCVCGKCSCHKIKLGKVYGKYCEKDDFSCPYHHGNLCAGHGECEAGRCQCFSGWEGDRCQCPSAAAQHCVNSKGQVCSGRGTCVCGRCECTDPRSIGRFCEHCPTCYTACKENWNCMQCLHPHNLSQAILDQCKTSCALMEQQHYVDQTSECFSSPSYLRIFFIIFIVTFLIGLLKVLIIRQVILQWNSNKIKSSSDYRVSASKKDKLILQSVCTRAVTYRREKPEEIKMDISKLNAHETFRCNF
modifications: surface labelled with 125I (lactoperoxidase)
no binding: all assays above
